What is called Kd is the equilibrium constant for the complex coming apart. Low readings indicate a tighter complex, high ones a looser complex.

The target in this series is NS5A domain I-Δh (HCV NS5A N-terminal domain) (Hepatitis C virus) (UniProt Q9WMX2). Description: EMSA. The conditions noted are these: approximate Kd, non-specific RNA sequence; text says NS5A, construct taken as the purified domain I-Δh. On the technique in general: Mobility shift assays separate free from complexed probe on a gel.
UniProt Q9WMX2, sequence (Q9WMX2 1997-2188, tags or fused parts left off): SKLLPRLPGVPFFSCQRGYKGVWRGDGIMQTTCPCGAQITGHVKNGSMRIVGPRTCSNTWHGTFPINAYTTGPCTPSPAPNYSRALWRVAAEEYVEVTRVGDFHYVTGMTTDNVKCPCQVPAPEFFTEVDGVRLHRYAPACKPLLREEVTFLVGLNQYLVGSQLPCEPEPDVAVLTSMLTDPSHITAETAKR

The substance “non-specific ssRNA (plasmid polylinker transcript)” gave a Kd of 10 nM.
